The text below walks through data of patent US20200216522A1 (published 2020).

This assay concerns the target full-length human Tau (Tau441; 2N4R), recombinant (UniProt P10636 1-758). The experiment in a line: SPR (Biacore); 25°C. In general terms: Surface plasmon resonance follows binding to a sensor surface in real time, without labels.

full-length human Tau (Tau441; 2N4R), recombinant, sequence (P10636 other isoform, or with tags, fused parts or gaps): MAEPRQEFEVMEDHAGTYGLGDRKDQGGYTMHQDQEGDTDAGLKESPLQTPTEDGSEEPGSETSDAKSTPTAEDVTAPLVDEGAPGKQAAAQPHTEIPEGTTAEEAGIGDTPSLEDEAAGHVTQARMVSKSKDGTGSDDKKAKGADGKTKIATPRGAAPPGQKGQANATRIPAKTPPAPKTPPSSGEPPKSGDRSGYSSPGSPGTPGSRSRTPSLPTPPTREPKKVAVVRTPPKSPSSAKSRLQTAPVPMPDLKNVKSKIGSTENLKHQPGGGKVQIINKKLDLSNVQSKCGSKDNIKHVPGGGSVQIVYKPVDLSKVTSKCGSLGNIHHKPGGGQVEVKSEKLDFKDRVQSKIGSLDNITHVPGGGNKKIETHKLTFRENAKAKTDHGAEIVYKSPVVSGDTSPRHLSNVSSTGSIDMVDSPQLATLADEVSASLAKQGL

B1: chimeric IgG clone 1G7 (antibody, V domains shown)
VH: EVQLQQSGAEVVRPGASVKLSCTTSGFNIKDSLMHWLKQRPEQGLEWIGWIDPEDGETKYAPKFQDKATITADTSSNTAYLQLSSLTSGDTAIYYCARRDWEGPWGQGTLVTVSA
VL: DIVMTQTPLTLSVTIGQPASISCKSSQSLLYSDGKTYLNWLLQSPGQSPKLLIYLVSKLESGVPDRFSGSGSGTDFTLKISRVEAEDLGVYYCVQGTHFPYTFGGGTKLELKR
Regarding B1, the Kd (commonly the equilibrium constant for the complex coming apart) is 94.6 pM.

B2: chimeric IgG clone 1A5 (antibody, V domains shown)
VH: EVQLQQSGAELVRPGASVKLSCTASGFNIKDSLIHWVKQRPEQGLEWIGWIDPEDGETKYAPKFQDKATKTADTSSNTAYLQLSSLTSEDTAIYYCASGEWDYWGQGTSVTVSS
VL: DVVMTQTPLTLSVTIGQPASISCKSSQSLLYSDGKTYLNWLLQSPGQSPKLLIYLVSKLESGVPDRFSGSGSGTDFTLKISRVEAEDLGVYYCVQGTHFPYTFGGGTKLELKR
For the molecule B2, the Kd is 155 pM.
